Assay results as given in publication PMC4614378, “A cancer-associated mutation inactivates a region of the high-mobility group protein HMG20b essential for cytokinesis” (Cell Cycle, 2014).
No end group written: not given here.

What was measured:
Assay in all cases: pull-down; 1 nmol biotinylated BRC5 peptide on Dynabeads M-280 Streptavidin, 100 pmol purified HMG20b fragment; 50mM Tris-HCl pH 7.4, 150mM NaCl, 1% NP-40, 5mM EDTA, 10mM NaF, 0.1% BSA; 30 minutes at room temperature; Coomassie staining
Conditions in all cases: both partners purified
[1] = target: T1, full-length HMG20b with C-terminal 6xHis tag (human, UniProt Q9P0W2 1-317)
T1 construct: cloned in pET21a; also called His-HMG20b; source: E. coli BL21 (DE3), purified (Ni-NTA agarose)
T1 sequence (looked up): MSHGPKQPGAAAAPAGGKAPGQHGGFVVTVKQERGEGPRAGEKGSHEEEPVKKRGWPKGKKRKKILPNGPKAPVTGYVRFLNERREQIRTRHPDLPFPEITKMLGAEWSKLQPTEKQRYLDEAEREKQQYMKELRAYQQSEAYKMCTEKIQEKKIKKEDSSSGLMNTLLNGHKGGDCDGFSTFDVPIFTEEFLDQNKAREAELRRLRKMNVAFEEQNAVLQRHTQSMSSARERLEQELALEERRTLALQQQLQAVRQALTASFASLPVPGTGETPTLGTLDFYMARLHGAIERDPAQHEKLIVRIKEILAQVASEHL

[2] = target: T2, HMG20b fragment aa113-317 with C-terminal 6xHis tag (human, UniProt Q9P0W2 113-317)
T2 construct: cloned in pET21a; source: E. coli BL21 (DE3), purified (Ni-NTA agarose)
T2 sequence (looked up): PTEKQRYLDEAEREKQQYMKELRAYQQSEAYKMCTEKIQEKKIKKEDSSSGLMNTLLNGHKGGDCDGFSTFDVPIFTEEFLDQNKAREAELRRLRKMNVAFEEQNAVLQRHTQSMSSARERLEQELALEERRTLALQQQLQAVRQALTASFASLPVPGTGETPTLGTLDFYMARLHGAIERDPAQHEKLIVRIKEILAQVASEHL

[3] = target: T3, HMG20b fragment aa173-317 with C-terminal 6xHis tag (human, UniProt Q9P0W2 173-317)
T3 construct: cloned in pET21a; also called C-terminal fragment; source: E. coli BL21 (DE3), purified (Ni-NTA agarose)
T3 sequence (looked up): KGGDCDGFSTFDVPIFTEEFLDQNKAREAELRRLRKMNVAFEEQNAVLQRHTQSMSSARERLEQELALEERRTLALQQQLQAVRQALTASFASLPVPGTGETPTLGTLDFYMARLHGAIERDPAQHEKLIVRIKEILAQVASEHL

[4] = target: T4, HMG20b fragment aa173-276 with C-terminal 6xHis tag (human, UniProt Q9P0W2 173-276)
T4 construct: cloned in pET21a; also called C-terminal Δ1; source: E. coli BL21 (DE3), purified (Ni-NTA agarose)
T4 sequence (looked up): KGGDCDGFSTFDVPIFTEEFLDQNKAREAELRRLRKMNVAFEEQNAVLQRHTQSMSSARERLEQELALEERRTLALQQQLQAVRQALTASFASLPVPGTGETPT

binding result [1]: binds
binding result [2]: binds
binding result [3]: binds
binding result [4]: binds
B1: Biotinylated BRC5 peptide (BRCA2 amino acid residues 1661-1695) (peptide, UniProt P51587 1661-1695, looked up)
peptide: YSVIENSALAFYTSCSRKTSVSQTSLLEAKKWLRE
modifications: also: biotinylated (position not given here)
notes: BRCA2, human, BRC5 repeat motif, residues 1661-1695; also called Biotin-BRC5 peptide; BRC5 repeat; source: synthetic peptide (Cambridge Research Biochemicals)
